Km and Vmax data for 3 proteins are collected here from PMC6347702.

Substrate in data set [1]: OC[C@H]1OC(O)[C@H](O)[C@@H](O)[C@@H]1O
Nature of the data set: spectrophotometric kinase assay, recombinant enzyme. The format is biochemical, Homo sapiens. The following applies: ATP-Mg2+.

Substrate in data set [2]: OC[C@H]1OC(O)[C@H](O)[C@@H](O)[C@@H]1O
The experiment in a line: radiochemical kinase assay, recombinant enzyme. It counts as biochemical, Homo sapiens. The following applies: ADP-Mg2+.

The term Km denotes the concentration of substrate that gives half-maximal velocity. What is called Vmax is the top rate of the reaction or transport when substrate is in excess.

B1: hexokinase 3 (hHK3) (Homo sapiens) (protein)
chain: MDSIGSSGLRQGEETLSCSEEGLPGPSDSSELVQECLQQFKVTRAQLQQIQASLLGSMEQALRGQASPAPAVRMLPTYVGSTPHGTEQGDFVVLELGATGASLRVLWVTLTGIEGHRVEPRSQEFVIPQEVMLGAGQQLFDFAAHCLSEFLDAQPVNKQGLQLGFSFSFPCHQTGLDRSTLISWTKGFRCSGVEGQDVVQLLRDAIRRQGAYNIDVVAVVNDTVGTMMGCEPGVRPCEVGLVVDTGTNACYMEEARHVAVLDEDRGRVCVSVEWGSFSDDGALGPVLTTFDHTLDHESLNPGAQRFEKMIGGLYLGELVRLVLAHLARCGVLFGGCTSPALLSQGSILLEHVAEMEDPSTGAARVHAILQDLGLSPGASDVELVQHVCAAVCTRAAQLCAAALAAVLSCLQHSREQQTLQVAVATGGRVCERHPRFCSVLQGTVMLLAPECDVSLIPSVDGGGRGVAMVTAVAARLAAHRRLLEETLAPFRLNHDQLAAVQAQMRKAMAKGLRGEASSLRMLPTFVRATPDGSERGDFLALDLGGTNFRVLLVRVTTGVQITSEIYSIPETVAQGSGQQLFDHIVDCIVDFQQKQGLSGQSLPLGFTFSFPCRQLGLDQGILLNWTKGFKASDCEGQDVVSLLREAITRRQAVELNVVAIVNDTVGTMMSCGYEDPRCEIGLIVGTGTNACYMEELRNVAGVPGDSGRMCINMEWGAFGDDGSLAMLSTRFDASVDQASINPGKQRFEKMISGMYLGEIVRHILLHLTSLGVLFRGQQIQRLQTRDIFKTKFLSEIESDSLALRQVRAILEDLGLPLTSDDALMVLEVCQAVSQRAAQLCGAGVAAVVEKIRENRGLEELAVSVGVDGTLYKLHPRFSSLVAATVRELAPRCVVTFLQSEDGSGKGAALVTAVACRLAQLTRV
Turning to B1, in data set [1], the Michaelis-Menten constant (Km) turned out to be 12.2 ± 1 µM.

B2: ADP-glucokinase (∆50-hADPG) (Homo sapiens) (protein)
chain: VSPEGRLAAAWDALIVRPVRRWRRVAVGVNACVDVVLSGVKLLQALGLSPGNGKDHSILHSRNDLEEAFIHFMGKGAAAERFFSDKETFHDIAQVASEFPGAQHYVGGNAALIGQKFAANSDLKVLLCGPVGPKLHELLDDNVFVPPESLQEVDEFHLILEYQAGEEWGQLKAPHANRFIFSHDLSNGAMNMLEVFVSSLEEFQPDLVVLSGLHMMEGQSKELQRKRLLEVVTSISDIPTGIPVHLELASMTNRELMSSIVHQQVFPAVTSLGLNEQELLFLTQSASGPHSSLSSWNGVPDVGMVSDILFWILKEHGRSKSRASDLTRIHFHTLVYHILATVDGHWANQLAAVAAGARVAGTQACATETIDTSRVSLRAPQEFMTSHSEAGSRIVLNPNKPVVEWHREGISFHFTPVLVCKDPIRTVGLGDAISAEGLFYSEVHPHY
B2: in data set [2], the Michaelis constant (Km) turned out to be 12.3 ± 1.3 µM.

B3: hexokinase 2 (∆28-hHK2) (Homo sapiens) (protein)
chain: MRLSDETLLEISKRFRKEMEKGLGATTHPTAAVKMLPTFVRSTPDGTEHGEFLALDLGGTNFRVLWVKVTDNGLQKVEMENQIYAIPEDIMRGSGTQLFDHIAECLANFMDKLQIKDKKLPLGFTFSFPCHQTKLDESFLVSWTKGFKSSGVEGRDVVALIRKAIQRRGDFDIDIVAVVNDTVGTMMTCGYDDHNCEIGLIVGTGSNACYMEEMRHIDMVEGDEGRMCINMEWGAFGDDGSLNDIRTEFDQEIDMGSLNPGKQLFEKMISGMYMGELVRLILVKMAKEELLFGGKLSPELLNTGRFETKDISDIEGEKDGIRKAREVLMRLGLDPTQEDCVATHRICQIVSTRSASLCAATLAAVLQRIKENKGEERLRSTIGVDGSVYKKHPHFAKRLHKTVRRLVPGCDVRFLRSEDGSGKGAAMVTAVAYRLADQHRARQKTLEHLQLSHDQLLEVKRRMKVEMERGLSKETHASAPVKMLPTYVCATPDGTEKGDFLALDLGGTNFRVLLVRVRNGKWGGVEMHNKIYAIPQEVMHGTGDELFDHIVQCIADFLEYMGMKGVSLPLGFTFSFPCQQNSLDESILLKWTKGFKASGCEGEDVVTLLKEAIHRREEFDLDVVAVVNDTVGTMMTCGFEDPHCEVGLIVGTGSNACYMEEMRNVELVEGEEGRMCVNMEWGAFGDNGCLDDFRTEFDVAVDELSLNPGKQRFEKMISGMYLGEIVRNILIDFTKRGLLFRGRISERLKTRGIFETKFLSQIESDCLALLQVRAILQHLGLESTCDDSIIVKEVCTVVARRAAQLCGAGMAAVVDRIRENRGLDALKVTVGVDGTLYKLHPHFAKVMHETVKDLAPKCDVSFLQSEDGSGKGAALITAVACRIREAGQR
B3: the Vmax in data set [1] is 35.4 µmol/min/mg.
